Results: US20250034266A1 (ZAI LAB SHANGHAI, published 2025)
One block for each binder: values may come before it.

Experiments:
cynomolgus CCR8 [1] = molecular target: T1, cynomolgus CCR8 (cynomolgus, UniProt G7NYJ2 1-355); test: FACS on HEK293-cynomolgus CCR8 cells
T1 construct: whole, on cells
Method: (§1) A total of 5×10⁴ cells for each well were seeded in 96-well plates and washed with FACS buffer (DPBD containing 1.5% FBS) for once. Antibodies were prepared with 3-fold serial dilution ranging from 100 nM to 0.0017 nM in FACS buffer. Cells were incubated with 50 μL of diluted antibodies at 4° C. for 1 hour. […] After primary antibody incubation, cells were washed for 3 times by FACS buffer. Then, cells were stained by Alexa Flu647 labeled anti-human IgG secondary antibody (Jackson ImmunoResearch, #109606170) or Alexa Flu647 labeled anti-mouse IgG secondary antibody (Jackson ImmunoResearch, #115605072) at 1:600 dilution in FACS buffer for 0.5 hour at 4° C. After washed for 3 times, Flow cytometry was performed to measure the binding.

human CCR8 [2] = molecular target: T2, human CCR8 (human, UniProt P51685 1-355); test: FACS, competition with CCL1 on CHO-K1-human CCR8 cells
T2 construct: whole, on cells; also called hCCR8

human CCR8 [3] = molecular target: T2, human CCR8; test: cell-based or functional assay
human CCR8 [4] = molecular target: T2, human CCR8; test: FACS, competition with AF647-human CCL1 on CHO-K1-human CCR8 cells
cynomolgus CCR8 [5] = molecular target: T1, cynomolgus CCR8; test: FACS on HEK293-cynomolgus CCR8 cells; remark: listed apart in the source
human CCR8 [6] = molecular target: T2, human CCR8; test: FACS on HEK293-human CCR8 cells
Method: as §1

human CCR8 [7] = molecular target: T2, human CCR8; test: FACS on CHO-K1-human CCR8 cells
human CCR8 [8] = molecular target: T2, human CCR8; test: FACS on HuT78 cells (endogenous human CCR8)
Method in brief: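 HuT78 cells with endogenous human CCR8 were incubated with diluted antibodies for 1 h at 4 °C, washed, then stained 0.5 h at 4 °C with Alexa Fluor 647 anti-human IgG (1:600). Binding measured by flow cytometry.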

human CCR8 [9] = molecular target: T2, human CCR8; test: cell-based or functional assay; remark: listed apart in the source
human CCR8 [10] = molecular target: T2, human CCR8; test: FACS, competition with CCL1 on CHO-K1-human CCR8 cells; remark: listed apart in the source
human CCR8 [11] = molecular target: T2, human CCR8; test: cell-based or functional assay; remark: listed apart in the source
human CCR8 [12] = molecular target: T2, human CCR8; test: FACS on HuT78 cells (endogenous human CCR8); remark: listed apart in the source
human CCR8 [13] = molecular target: T2, human CCR8; test: FACS on CHO-K1-human CCR8 cells; remark: listed apart in the source
cynomolgus CCR8 [14] = molecular target: T1, cynomolgus CCR8; test: FACS on HEK293-cynomolgus CCR8 cells; remark: listed apart in the source
cynomolgus CCR8 [15] = molecular target: T1, cynomolgus CCR8; test: FACS on HEK293-cynomolgus CCR8 cells; remark: listed apart in the source
Method in brief: (§2)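 Antibodies, 3-fold dilutions from 100 nM to 0.0017 nM, incubated with 5×10⁴ HEK293 cells in FACS buffer (1.5% FBS) 1 h at 4 °C. Binding detected by flow cytometry after Alexa Fluor 647 anti-human or anti-mouse IgG secondary (1:600, 0.5 h, 4 °C).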

human CCR8 [16] = molecular target: T2, human CCR8; test: FACS, competition with AF647-human CCL1 on CHO-K1-human CCR8 cells; remark: listed apart in the source
human CCR8 [17] = molecular target: T2, human CCR8; test: FACS on HEK293-human CCR8 cells; remark: listed apart in the source
Method in brief: as §2

human CCR4 = molecular target: T3, human CCR4 (human, UniProt P51679 1-360); test: FACS on ExpiCHO-S-human CCR4 cells
T3 construct: whole, on cells
T3 sequence (looked up): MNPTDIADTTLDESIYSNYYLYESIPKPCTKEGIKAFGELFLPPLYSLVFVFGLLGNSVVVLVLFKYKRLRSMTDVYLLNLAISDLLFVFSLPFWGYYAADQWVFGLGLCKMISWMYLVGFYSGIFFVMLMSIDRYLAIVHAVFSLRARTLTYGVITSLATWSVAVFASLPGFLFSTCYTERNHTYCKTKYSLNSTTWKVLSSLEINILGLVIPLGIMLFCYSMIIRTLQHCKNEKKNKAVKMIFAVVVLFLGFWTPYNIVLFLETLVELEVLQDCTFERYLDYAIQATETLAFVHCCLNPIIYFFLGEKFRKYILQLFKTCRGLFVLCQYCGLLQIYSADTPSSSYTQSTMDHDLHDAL
Method: (§3) ExpiCHO-S cells were transiently transfected with human CCR1 or human CCR4. A total of 5×10⁴ cells for each well were seeded in 96-well plates and washed with FACS buffer (DPBS containing 1.5% FBS) for once. […] Cells were incubated with 50 μL of diluted antibodies at 4° C. for 1 hour. […] After primary antibody incubation, cells were washed for 3 times by FACS buffer. Then, cells were stained by Alexa Flu647 labeled anti-human IgG secondary antibody (Jackson ImmunoResearch, #109606170) or Alexa Flu647 labeled anti-mouse IgG secondary antibody (Jackson ImmunoResearch, #115605072) at 1:600 dilution in FACS buffer for 0.5 hour at 4° C. Flow cytometry was performed to measure the binding.

cynomolgus CCR8 [18] = molecular target: T1, cynomolgus CCR8; test: FACS on ExpiCHO-S-cynomolgus CCR8 cells
human CCR8 [19] = molecular target: T2, human CCR8; test: FACS on HEK293-human CCR8 cells; remark: listed apart in the source
human CCR8 [20] = molecular target: T2, human CCR8; test: FACS, competition with AF647-human CCL1 on CHO-K1-human CCR8 cells; remark: listed apart in the source
human CCR1 = molecular target: T4, human CCR1 (human, UniProt P32246 1-355); test: FACS on ExpiCHO-S-human CCR1 cells
T4 construct: whole, on cells
T4 sequence (looked up): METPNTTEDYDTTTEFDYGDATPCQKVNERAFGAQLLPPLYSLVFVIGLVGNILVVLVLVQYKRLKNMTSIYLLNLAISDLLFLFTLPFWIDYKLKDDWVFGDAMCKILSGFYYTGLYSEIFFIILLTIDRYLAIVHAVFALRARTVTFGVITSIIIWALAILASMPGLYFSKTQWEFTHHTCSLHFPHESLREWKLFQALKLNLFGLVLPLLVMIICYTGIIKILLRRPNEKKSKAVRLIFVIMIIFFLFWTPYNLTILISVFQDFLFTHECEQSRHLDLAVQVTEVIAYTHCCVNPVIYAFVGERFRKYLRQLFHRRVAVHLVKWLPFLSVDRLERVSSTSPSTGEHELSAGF
Method: as §3

T2 sequence (P51685 whole entry): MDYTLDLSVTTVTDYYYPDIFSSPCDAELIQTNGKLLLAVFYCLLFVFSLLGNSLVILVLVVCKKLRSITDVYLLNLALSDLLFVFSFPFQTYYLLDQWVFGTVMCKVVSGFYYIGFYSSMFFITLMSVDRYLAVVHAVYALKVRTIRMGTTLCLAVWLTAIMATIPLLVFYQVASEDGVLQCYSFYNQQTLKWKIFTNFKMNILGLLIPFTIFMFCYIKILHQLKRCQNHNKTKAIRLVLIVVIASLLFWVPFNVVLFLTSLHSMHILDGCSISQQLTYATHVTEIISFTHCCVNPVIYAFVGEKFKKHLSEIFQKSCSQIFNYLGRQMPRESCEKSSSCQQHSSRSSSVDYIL
T1 sequence (G7NYJ2 entry or part of it): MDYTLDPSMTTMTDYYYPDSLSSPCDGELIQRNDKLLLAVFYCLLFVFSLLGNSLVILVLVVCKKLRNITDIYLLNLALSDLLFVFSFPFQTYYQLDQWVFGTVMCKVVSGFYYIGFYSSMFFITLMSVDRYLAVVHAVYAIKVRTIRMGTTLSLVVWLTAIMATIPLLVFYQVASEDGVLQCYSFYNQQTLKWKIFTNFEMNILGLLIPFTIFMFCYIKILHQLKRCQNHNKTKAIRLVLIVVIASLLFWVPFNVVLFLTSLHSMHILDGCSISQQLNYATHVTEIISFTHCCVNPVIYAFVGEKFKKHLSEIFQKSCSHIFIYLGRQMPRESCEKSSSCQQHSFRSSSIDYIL

B1: Hu149-9 (antibody, human IgG1, V domains shown)
VH: EVQLVESGGGLVQPGGSLKLSCAASGFTFNTYAMNWVRQASGKGLEWVGRIRSKSNFYATAYAASVKGRFTISRDDSKNTAYLQMNSLKTEDTAVYYCTRGRDYGSSYAMDYWGQGTLVTVSS
VL: DIVMTQSPLSLPVTPGEPASISCRSSKSLLHSNANTYLYWFLQKPGQSPQLLIYRMSNLASGVPDRFSGSGSGTDFTLKISRVEAEDVGVYYCMQHLEYPLTFGGGTKVELK
notes: humanized, human IgG1; also called Hu149-9 HuIgG1
EC50 (cynomolgus CCR8 [1]): 0.12 nM
IC50 (human CCR8 [2]): 0.087 nM
Max Inhibition (%) (human CCR8 [2]): 99.2%
EC50, ADCC with human PBMC (human CCR8 [3]): 0.06 nM
Max specific lysis (%), ADCC with human PBMC (human CCR8 [3]): 7.56%
IC50 (human CCR8 [4]): 0.119 nM
EC50 (cynomolgus CCR8 [5]): 0.0824 nM
Max MFI (cynomolgus CCR8 [5]): 3.53e+06 MFI
EC50 (human CCR8 [6]): 0.072 nM
EC50 (human CCR8 [7]): 0.0487 nM
Max MFI (human CCR8 [7]): 625000 MFI
Max MFI (human CCR8 [8]): 32300 MFI

B3: CM149 (antibody, V domains shown)
VH: EVQLVESGGGLVQPKGSLKLSCAASGFTFNTYAMNWVRQAPGKGLEWVARIRSKSNFYATYYADSVKDRFTISRDDSQDMLYLQMNILKTEDTAIYYCVRGRDYGSSYAMDYWGQGTSVTVSS
VL: DIVMTQAAPSVPVTPGESVSISCRSSKSLLHSNANTYLYWFLQRPGQSPQLLIYRMSNLASGVPDRFSGSGSGTAFTLRISRVEAEDVGVYYCMQHLEYPLTFGAGTKLELK
notes: CM149 is not defined in words; also called CM149 HuIgG1; parental antibody CM149
EC50 (cynomolgus CCR8 [1]): 0.263 nM
EC50, ADCC with human PBMC (human CCR8 [3]): 0.067 nM
Max specific lysis (%), ADCC with human PBMC (human CCR8 [3]): 10.3%
IC50 (human CCR8 [4]): 0.708 nM
EC50 (cynomolgus CCR8 [15]): 0.235 nM
Max MFI (cynomolgus CCR8 [15]): 18100 MFI
EC50 (human CCR8 [6]): 0.18 nM
IC50 (human CCR8 [16]): 0.681 nM
Max Inhibition (%) (human CCR8 [16]): 97.8%
EC50 (human CCR8 [17]): 0.142 nM
Max MFI (human CCR8 [17]): 7100 MFI

Other lines, results leading:

IC50, inhibition of CCL1 induced β-Arrestin recruitment (human CCR8 [9]): 0.35 nM
Max Inhibition (%), CCL1 induced β-Arrestin recruitment (human CCR8 [9]): 85.8%
IC50 (human CCR8 [2]): 0.0982 nM
Max Inhibition (%) (human CCR8 [2]): 100%
EC50 (cynomolgus CCR8 [5]): 0.199 nM
Max MFI (cynomolgus CCR8 [5]): 4.04e+06 MFI
IC50 (human CCR8 [10]): 0.184 nM
Max Inhibition (%) (human CCR8 [10]): 99.5%
IC50, blocking of cell migration induced by CCL1 (human CCR8 [11]): 0.953 nM
EC50 (human CCR8 [12]): 0.25 nM
Max MFI (human CCR8 [12]): 48100 MFI
EC50 (human CCR8 [13]): 0.093 nM
Max MFI (human CCR8 [13]): 199000 MFI
EC50 (cynomolgus CCR8 [14]): 0.17 nM
Max MFI (cynomolgus CCR8 [14]): 3.61e+06 MFI
EC50 (human CCR8 [7]): 0.0675 nM
Max MFI (human CCR8 [7]): 638000 MFI
EC50 (human CCR8 [8]): 0.17 nM
Max MFI (human CCR8 [8]): 26900 MFI
B2: Hu149-12 (antibody, human IgG1)
heavy: not shown
VL: B1 VL
notes: human IgG1; suffix G1 read as wild type as for Hu149-11G1; also called Hu149-12G1

binding result (human CCR4): no binding (tested: 200 nM)
EC50 (cynomolgus CCR8 [18]): 0.087 nM
Max MFI (cynomolgus CCR8 [18]): 534 MFI
EC50, ADCC with human PBMC (human CCR8 [3]): 0.517 nM
Max specific lysis (%), ADCC with human PBMC (human CCR8 [3]): 13.5%
EC50 (human CCR8 [19]): 0.109 nM
Max MFI (human CCR8 [19]): 5120 MFI
IC50 (human CCR8 [20]): 0.151 nM
Max Inhibition (%) (human CCR8 [20]): 94.6%
binding result (human CCR1): no binding (tested: 200 nM)
B4: Hu348-4 (antibody, human IgG1, V domains shown)
VH: EVQLVESGGGLVQPGGSLKLSCATSGFSFSNYRMHWLRQASGKGLEWVGVITVKSDNYGANYAASVKGRFTISRDDSKSSVYLQMNSLKTEDTAVYYCSSLGRVAYWGQGTLVTVSS
VL: DIQMTQSPSSVSASVGDRVTITCKASQNVDTNVVWYQQKPGQSPKALIYSASSRYSGVPSRFSGSGSGTDFTLTISSLQPEDFATYYCQQHNSFPLTFGQGTKLEIK
notes: humanized, human IgG1; also called Hu348-4 HuIgG1
